PMC8175468, “3D architecture and structural flexibility revealed in the subfamily of large glutamate dehydrogenases by a mycobacterial enzyme” (Communications Biology, 2021)

B1: Se-Met mL-GDH180 (seleno-methionine derivative of the mycobacterial L-GDH180 from Mycobacterium smegmatis MC2-155) (enzyme, UniProt A0R1C2 1-1594, looked up)
chain: MIRRLSVAFLSTYRGPQADAPGVTSTGPLAVAAHDDLVSDDLVAAHYRLASMRAPGETKAAVYPGDAGSGAALQIVTDQAPMLVDSVTVLLHRHGIAYTAIMNPVFRVRRGLDGELLDVRPAAEAAPGDGADECWILVPITAAADGEALTEATRLVPGILAEARQIGLDSGAMIAALHGLANDLATDLEGHFPNAERKEVAALLRWLADGHFVLLGYQQCVVGDGNAEVDPASRLGVLRLRNDVLPPLTDSDDLLVLAQATMPSYLRYGAYPYIVVVRESPGASRVIEHRFVGLFTVAAMNANALEIPLISRRVEEALAMAHRDPSHPGQLLRDIIQTIPRPELFALSSKQLLEMALAVVDLGSRRRTLLFLRADHLAHFVSCLVYLPRDRYTTAVRLEMQDILVRELGGAGIDYSARVSESPWAVVHFTVRLPEGTAADSVDTSLENESRIQDLLTEATRNWGDRMISAAAAASISPAALEHYAHAFPEDYKQAFAPQDAIADISLIEALQDDSVKLVLADTAEDRVWKLTWYLGGHSASLSELLPMLQSMGVVVLEERPFTLRRTDGLPVWIYQFKISPHPSIPHAPDAEAQRDTAQRFADAVTAIWHGRVEIDRFNELVMRAGLTWQQVVVLRAYAKYLRQAGFPYSQSHIESVLNENPHTTRSLIDLFEALFDPSQETDGRRDAQGAAAAVAADIDALVSLDTDRVLRAFANLIEATLRTNYFVARPDSARARNVLAFKLNPLVIKELPLPRPKFEIFVYSPRVEGVHLRFGFVARGGLRWSDRREDFRTEILGLVKAQAVKNAVIVPVGAKGGFVVKRPPTLTGDAAADREATRAEGVECYRLFISGLLDVTDNVDKATGAVVTPPEVVRRDGEDAYLVVAADKGTATFSDIANEVAKSYGFWLGDAFASGGSIGYDHKAMGITAKGAWESVKRHFREMGVDTQTQDFTVVGIGDMSGDVFGNGMLLSKHIRLVAAFDHRDIFLDPNPDAGRSWDERKRLFDLPRSSWADYDKSLISEGGGVYSRQQKSIPISPQVRTALGLDADVEELTPPALIKAILKAPVDLLWNGGIGTYIKAETEADADVGDRANDQIRVCGNQVRAKVIGEGGNLGVTALGRIEFDLAGGRINTDALDNSAGVDCSDHEVNIKILIDSAVTAGKVTPEERTELLLSMTDEVGELVLADNRDQNDLMGTSRANAASLLSVHARMIKDLVDNRGLNRELEALPSEKEIRRRADAGIGLTSPELATLMAHVKLALKDDVLASDLPDQEVFASRLPYYFPTRLREELHGEIRSHQLRREIITTMLVNDLVDTAGISYAYRITEDVGVGPVDAVRSYVAINAIFGIGDVWRRIRAAGDAGVPTSVTDRMTLDLRRLVDRAGRWLLNYRPQPLAVGAEINRFGAKVAALTPRMSEWLRGDDKAIVSKEAGDFASHGVPEDLAYHIATGLYQYSLLDVIDIADIVDREPDEVADTYFALMDHLGADALLTAVSRLSRDDRWHSLARLAIRDDIYGSLRALCFDVLAVGEPDENGEEKIAEWETTNSSRVTRARRTLTEIYKDGEQDLATLSVAARQIRSMTRTSGTGTTG
modifications: seleno-methionine in place of methionine
notes: No cleavage of the His6 tag is described; Crystallised from a solution that also held an equimolar amount of GarA from M. tuberculosis, which was not found in the crystal; also called seleno-methionine (Se-Met) derivative of mL-GDH180
B2: native mL-GDH180 (mycobacterial large glutamate dehydrogenase of 180 kDa subunits from Mycobacterium smegmatis MC2-155) (enzyme, UniProt A0R1C2 1-1594, looked up)
chain: MIRRLSVAFLSTYRGPQADAPGVTSTGPLAVAAHDDLVSDDLVAAHYRLASMRAPGETKAAVYPGDAGSGAALQIVTDQAPMLVDSVTVLLHRHGIAYTAIMNPVFRVRRGLDGELLDVRPAAEAAPGDGADECWILVPITAAADGEALTEATRLVPGILAEARQIGLDSGAMIAALHGLANDLATDLEGHFPNAERKEVAALLRWLADGHFVLLGYQQCVVGDGNAEVDPASRLGVLRLRNDVLPPLTDSDDLLVLAQATMPSYLRYGAYPYIVVVRESPGASRVIEHRFVGLFTVAAMNANALEIPLISRRVEEALAMAHRDPSHPGQLLRDIIQTIPRPELFALSSKQLLEMALAVVDLGSRRRTLLFLRADHLAHFVSCLVYLPRDRYTTAVRLEMQDILVRELGGAGIDYSARVSESPWAVVHFTVRLPEGTAADSVDTSLENESRIQDLLTEATRNWGDRMISAAAAASISPAALEHYAHAFPEDYKQAFAPQDAIADISLIEALQDDSVKLVLADTAEDRVWKLTWYLGGHSASLSELLPMLQSMGVVVLEERPFTLRRTDGLPVWIYQFKISPHPSIPHAPDAEAQRDTAQRFADAVTAIWHGRVEIDRFNELVMRAGLTWQQVVVLRAYAKYLRQAGFPYSQSHIESVLNENPHTTRSLIDLFEALFDPSQETDGRRDAQGAAAAVAADIDALVSLDTDRVLRAFANLIEATLRTNYFVARPDSARARNVLAFKLNPLVIKELPLPRPKFEIFVYSPRVEGVHLRFGFVARGGLRWSDRREDFRTEILGLVKAQAVKNAVIVPVGAKGGFVVKRPPTLTGDAAADREATRAEGVECYRLFISGLLDVTDNVDKATGAVVTPPEVVRRDGEDAYLVVAADKGTATFSDIANEVAKSYGFWLGDAFASGGSIGYDHKAMGITAKGAWESVKRHFREMGVDTQTQDFTVVGIGDMSGDVFGNGMLLSKHIRLVAAFDHRDIFLDPNPDAGRSWDERKRLFDLPRSSWADYDKSLISEGGGVYSRQQKSIPISPQVRTALGLDADVEELTPPALIKAILKAPVDLLWNGGIGTYIKAETEADADVGDRANDQIRVCGNQVRAKVIGEGGNLGVTALGRIEFDLAGGRINTDALDNSAGVDCSDHEVNIKILIDSAVTAGKVTPEERTELLLSMTDEVGELVLADNRDQNDLMGTSRANAASLLSVHARMIKDLVDNRGLNRELEALPSEKEIRRRADAGIGLTSPELATLMAHVKLALKDDVLASDLPDQEVFASRLPYYFPTRLREELHGEIRSHQLRREIITTMLVNDLVDTAGISYAYRITEDVGVGPVDAVRSYVAINAIFGIGDVWRRIRAAGDAGVPTSVTDRMTLDLRRLVDRAGRWLLNYRPQPLAVGAEINRFGAKVAALTPRMSEWLRGDDKAIVSKEAGDFASHGVPEDLAYHIATGLYQYSLLDVIDIADIVDREPDEVADTYFALMDHLGADALLTAVSRLSRDDRWHSLARLAIRDDIYGSLRALCFDVLAVGEPDENGEEKIAEWETTNSSRVTRARRTLTEIYKDGEQDLATLSVAARQIRSMTRTSGTGTTG
notes: NAD-dependent large glutamate dehydrogenase (L-GDH180), Mycobacterium smegmatis MC2-155, MSMEG_4699, Uniprot A0R1C2; No cleavage of the His6 tag is described; Only residues 500-1588 are modelled in the cryo-EM coordinates (7A1D); also called L-GDH180 from M. smegmatis; MSMEG_4699; source: E. coli BL21(DE3) grown in LB broth, purified (HisTrap HP, Superose 6 size-exclusion chromatography)

Tests used:
[1] = target: the molecule itself; assay: crystal structure; Se-Met mL-GDH180 at 16.5 mg/ml with equimolar GarA; 100 mM sodium cacodylate pH 5.8, 12% v/v glycerol, 1.25 M (NH4)2SO4, 4 °C; two monomers in the asymmetric unit, tetramer by crystallographic symmetry; 6.27 Å
[2] = target: the molecule itself; assay: cryo-EM structure; 0.3 mg/ml native mL-GDH180 on Quantifoil R2/2 grids; single-particle, D2 symmetry; open (4.19 Å) and closed (6.6 Å) tetramers

Protein | stoichiometry N [1] | stoichiometry N [2]
B1 | 4 | –
B2 | – | 4
